From the RNAGym collection of RNA variant scans (doi:10.1073/pnas.2313332121)

B1: TPR t1 (parent)
chain: GACCAAUCUGCCCUCAGAGCUCGAGAACAUCUUCGGAUGCAGAGGAGGCAGGCUUCGGUGGCGCGAUAGCGCCAACGUCCUCAACCUCCAAUGCAUCCCACCACAUGAUGAUGCCUGAAGAGCCUUGGUUUUUUG

Variants of: B1
Assay: polymerase ribozyme fitness, log enrichment relative to wild type (log ratio); higher = more active; in vitro selection for triplet polymerase activity
Procedure, shortened: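 Mutant libraries of each subunit of a heterodimeric triplet polymerase ribozyme were built by PCR and transcribed. Each library went through one round of in vitro selection in triplicate: annealing with biotinylated primer, partner subunit and triplets, frozen incubation at −7 °C, gel excision of extended constructs, streptavidin-bead capture and RT-PCR. Input and output libraries were Illumina-sequenced; only genotypes with ≥10 input reads and ≥1 read per output were kept. Fitness is log2(genotype enrichment/wild-type enrichment), using inverse-variance-weighted replicate averages.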

Variant	polymerase ribozyme fitness (log ratio)
G44C C53A C72U C88U A100U	-0.423
G44U G48U	-2.5
G44U C49A A50C G71A	-5.27
G44U C56A G127C	-2.27
G44C U106C G135C	-1.28
G44U A90U	-2.78
G44U C49A	-2.67
G44C A91C G120A	-0.836
G44C G45A G61U U78G	-4.37
G44C C97G U112A	-4.06
G44A U112A	0.126
G44C U116C C124A	-0.551
G44U C53U	-1.59
G44C C85U G117A C124A U125C	-1.55
G44C U92C C124A	0.556
G44U A66U	-2.13
G44C C73U C86U U96G U129C	-2.46
G44U A83C	-1.34
G44C C56G G69U	-2.28
G44U G69U G117C A121C	-4.54
G44U A50U G60C C101A C115A	-4.05
G44U C53G G71U C73A C82U U129G	-3.9
G44C C64U	-0.652
G44U C89A	0.219

Variant	polymerase ribozyme fitness (log ratio)
G44C U116G C124G	-3.04
G44U G61U G110U	-1.97
G44U U133G	-1.78
G44C C64U A111G	-0.526
G44U C62G G117A	-4.71
G44A U109G	-5.09
G44U G45C	-2.69
G44C U78C C115G C123U	-4.64
G44U C62G C79U A90G	-1.45
G44C U92G	-2.61
G44U G69C A121G	0.0622
G44U G48A C114A	-2.35
G44U C70A U116C	-4.01
G44C G58A A91G U92C	-3.08
G44C C80A G110U C124A	-6.53
G44C U106C	-0.754
G44C U112G	-1.07
G44C C88G G117A C123G	-2.7
G44U G63U C115G	-3.72
G44U G45C C62U	-3.45
G44U G71A	-2.39
G44U C62A A84U A118G	-4.34
G44C G69A	-4.37
G44C A111G	-0.351

Variant	polymerase ribozyme fitness (log ratio)
G44C G45U	-2.11
G44C A83G A111C	-2.73
G44C A46U G58A G63U G117A U130G	-6.42
G44C G71U	-2.2
G44A U130C	-0.447
G44C C56U	-0.735
G44U C114U U132A	-2.69
G44U C82A C97A A121U	-3.17
G44C A95G A118G	-1.3
G44U C73A C102A	-2.29
G44C G60A	-1.01
G44U C124G	-0.383
G44U A46U G71U C114G U132A	-4.18
G44U U55G G61C A119U	-1.87
G44U G60A U129C	-1.49
G44C G47U G48A	-1.43
G44U C56U	-0.616
G44U G47U C49U C72A A74G U96G U132A	-5.92
G44U G48A C76U C85A C88A	-2.99
G44C C53U G61U C124U	0.752
G44A U81G U87G A90G	-4.02
G44U C64U	-1.48
G44U C72G C85U U96A A121G C124G	-3.64
G44U C98A G120U	-6.27

Variant	polymerase ribozyme fitness (log ratio)
G44U G45A G122A	-3.13
G44C C70G A119U	-5.47
G44C C72G C88U C101U	-2.47
G44U C114U	-2.25
G44C G47U U81A	-4.12
G44U G47U C72A U81G G117C	-6.49
G44A U129A	-1.83
G44U C53G G60A A121C	0.687
G44C G69U A75G C79U U87A C97U G135U	-5.55
G45A A50G C62U	-0.502
G44C A121C	0.904
G44C G58C U59C U96A	-1.98
G44U U92C	-1.82
G44C C88A U109A	-5.8
G44C G120C	-0.584
G44U C72G C85A	-2.52
G44U U109A	-5.43
G44U C64G C101G A121U	-6.22
G44U G57A C94G	-3.86
G44U G47U	-2.16
G44U C89U A111U	-4.49
G44U G48U C114A	-2.93
G44C U55A A103U U130A	-5.8
G44C C73U U112G G120U G127C	-5.16

Variant	polymerase ribozyme fitness (log ratio)
G44U A46C A95G	-3.59
G44U U106G A119G	-1.15
G44U A68G U92A A119U C124U	-6.31
G44C C94G A121G	0.2
G44U A91U	-2.13
G44U G117A	-2.13
G44U G60C	-0.794
G44C C72U A75C U92G	-2.94
G44C G47A C73G	-2.76
G44C C49U	-2.11
G44U G63C C79U U112A	0.269
G44U G61U	-0.394
G44U G61C	-2.36
G44U G61A	-1.47
G44U C49A C56U G117A	-2.64
G44A U92G	-3.27
G44U	-1.16
G44C	-0.805
G44U A90U G135U	-2.19
G44U G58C G113A	-1.31
G44U C72G U92A C115G	-5.53
G44C A74C A111C	-0.547
G44C U81C U106A	-0.434
G44U C88A U133G	-1.73

Variant	polymerase ribozyme fitness (log ratio)
G44U A46U	-1.83
G44C U81A C89U G110U	-4.45
G44U C53A C56A U67C A111C	-6.43
G44U G61A C98A G117U	-7.12
G44U G47C C53U C72G	-4.81
G44C U87A	-1.07
G44C G63A C85U G110C	-7.22
G44U G52U U55A U132A	-2.55
G44C C72U A100C	-2.51
G44U G110A	-2.64
G44U C72A	-1.04
G44C G58C A121G	1.21
G44C G47A G61U U133A	-1.13
G44U C72A G127C U131C	-3.12
G44C C62A U132C	-2.12
G44U U55A A68U G69U C86G G120U	-7.36
G44C C102A G120U	-4.59
G44U C72G U78G C82G	-2.66
G44U G120U U131A	-1.89
G44U G63A	-1.62
G44U G63C	-1.66
G44U G47A C56A C124U G127C U131A G135C	-3.28
G44C G69A A91G A103C C115U	-5.28
G44C U106G G110A A119G	-4.41

Variant	polymerase ribozyme fitness (log ratio)
G44U G60C U87G	-2.16
G44U C64U C102A	-2.68
G44C G77A	-0.814
G44U U54C G113C	-3.08
G44U U129A U131A	-3.84
G44U U55A A83U	-1.34
G44U U112G	-1.6
G44U U112C	0.722
G44U U131A	-1.33
G44C C115G	-2.64
G44U C53A C56A A111C	-0.781
G44U C72U C76A C88U U109A	-5.19
G44C U92G U106A U116A	-6.02
G44U A46U C89A	-0.411
G44U A46C G52U G61U C124A	-3.53
G44U G45U G60C C72U C101U A121G U131C	-0.75
G44C G63A C86A	-3.09
G44U G47U C49G	-5.36
G44C A46U G58A G117A U130G	-3.81
G45A	-0.788
G44U A84G G120C U130G	-2.91
G44U U87C U106C	-1.29
G44U G57U C89U C104U	-1.47
